Reference: US20030124664

Biological target: human growth hormone (hGH) with the N-terminal phenylalanine, expressed and secreted from plasmid phGH4R, P01241
Sequence (P01241 27-217): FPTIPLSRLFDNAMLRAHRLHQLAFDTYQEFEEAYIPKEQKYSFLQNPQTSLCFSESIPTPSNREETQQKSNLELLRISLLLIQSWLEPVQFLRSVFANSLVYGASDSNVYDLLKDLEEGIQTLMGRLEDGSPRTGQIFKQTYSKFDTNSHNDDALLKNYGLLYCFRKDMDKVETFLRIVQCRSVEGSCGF

B1: native-sequence aminopeptidase b2324 (product of the E. coli chromosomal yfcK gene) (protein)
chain: MRSLTHIAKIEPPPVRRVTYVKHYSIQPANLEFNAEGTPVSRDFDDVYFSNDNGLEETRYVFLGGNQLEVRFPEHPHPLFVVAESGFGTGLNFLTLWQAFDQFREAHPQAQLQRLHFISFEKFPLTRADLALAHQHWPELAPWAEQLQAQWPMPLPGCHRLLLDEGRVTLDLWFGDINELTSQLDDSLNQKVDAWFLDGFAPAKNPDMWTQNLFNAMARLARPGGTLATFTSAGFVRRGLQDAGFTMQKRKGFGRKREMLCGVMEQTLPLPCSAPWFNRTGSSKREAAIIGGGIASALLSLALLRRGWQVTLYCADEAPALGASGNRQGALYPLLSKHDEALNRFFSNAFTFARRFYDQLPVKFDHDWCGVTQLGWDEKSQHKIAQMLSMDLPAELAVAVEANAVEQITGVATNCSGITYPQGGWLCPAELTRNVLELAQQQGLQIYYQYQLQNLSRKDDCWLLNFAGDQQATHSVVVLANGHQISRFSQTSTLPVYSVAGQVSHIPTTPELAELKQVLCYDGYLTPQNPANQHHCIGASYHRGSEDTAYSEDDQQQNRQRLIDCFPQAQWAKEVDVSDKEARCGVRCATRDHLPMVGNVPDYEATLVEYASLAEQKDEAVSAPVFDDLFMFAALGSRGLCSAPLCAEILAAQMSDEPIPMDASTLAALNPNRLWVRKLLKGKAVKAG
N-terminal cleavage of hGH in crude lysate (LC-MS), yfcK deletion strain against control: virtually no phenylalanine-cleaved impurities after 15 hours of incubation at 37 °C
